# Test results: patent publication US20240270826A1 (NATIONAL RESEARCH COUNCIL OF CANADA, published 2024)
# B1: NRCoV2-17 VHH-Fc (Fc fusion)
# chain: EVQLQQSGGGLVQTGGSLRLSCAAAGSPFSQLAMSWYRQISGKERAWVASISPTGNRSYSKIAKGRFTISRDNAKNTVTLQMTSLKPEDTAAYICQAANVNGGDYWGQGTQVTVSS
# notes: bivalent VHH-Fc
# B2: NRCoV2-10 VHH-Fc (Fc fusion)
# chain: QLQLQESGGGLVQPGGSLTLSCAASGNTFSRSNMHWYRQAPGAQREWVAAISSRGISTYAYSAKGRFTISRDNAKNTVSLQMNSLKPEDTAVYYCYAADDLGDYWGQGTQVTVSS
# notes: bivalent VHH-Fc
# B3: NRCoV2-15 VHH-Fc (Fc fusion)
# chain: EVQLVSSGGGLVEAGGSLRLSCIASGSTSGRNTMGWFRQAPGKQREWVAIVSTSGATNYAGSVKGRFTLSRDNAKNAVYLQMNNLKPEDTAVYYCYAAYGGGGDYWGQGTQVTVSS
# notes: bivalent VHH-Fc
# B4: NRCoV2-MRed05 VHH-Fc (Fc fusion)
# chain: EVQLVESGGGLVQPGGSLRLSCAASGFTLDYYAIGWFRQAPGKEREGVSCISSSDGSTLYADSVKGRFTISRDNAKNTVYLQMNSLKPEDTAVYYCATGPQAYYSGSYYFQCPQAGMDYWGKGTQVTVSS
# notes: bivalent VHH-Fc
# B5: NRCoV2-SR13 VHH-Fc (Fc fusion)
# chain: EVQLVESGGGLVTTGGSLRLSCATSGSRFGSKHMAWYRQAPGKQRDLVAAISSGGSTHYGSSVKGRFTISRDNAKSTVYLQMNSLNPEDTAVFYCNMGGWDYRSNTYIPGSRSDYWGQGTQVTVSS
# notes: bivalent VHH-Fc
# B6: NRCoV2-1d VHH-Fc (Fc fusion)
# chain: EVQLVESGGGSVQPGGSLRLSCAASGSTLDYYAIGWFRQAPGKEREWVSSVSSSDGNTLYADSVKGRFTISRDNAKNTVYLQMNSLKAEDTAVYVCAADYSMRPFAVGRWHRDYEYWGQGTQVTVSS
# notes: bivalent VHH-Fc
# B7: NRCoV2-02 VHH-Fc (Fc fusion)
# chain: EVQLVESGGGLVQAGGSLRLSCAASGFTFSNYAMNWVRQAPGKGLEWVSGISGRGDDTRYADSVKGRFTISRDNAKNTLFLQMRSLRPEDTGVYRCTKGPDLYYFGSGYSDRGQGTQVTVSS
# notes: bivalent VHH-Fc
# B8: NRCoV2-05 VHH-Fc (Fc fusion)
# chain: EVKLVQSGGGLVQPGGSLRLSCAASGFIFSNYAMNWVRQAPGKGLEWVSGINSGGGDTRYADSVKGRFTVSRDNAKNTLYLQMNSLKPEDTGVYYCSKGPVSSYYGSGYDYRGQGTQVTVSS
# notes: bivalent VHH-Fc
# B9: NRCoV2-14 VHH-Fc (Fc fusion)
# chain: EVQLVSSGGGLVQAGGSLRLSCEASGTTFSHYAVGWYRQAPGKQREWVASISVFGSTTYGGSVAGRFTISRDNDKNTVDLQMNSLKPEDTAVYYCHAVNADIGGDYWGQGTQVTVSS
# notes: bivalent VHH-Fc
# B10: NRCoV2-17 VHH-Fc (Fc fusion)
# chain: B1 chain
# notes: bivalent VHH-Fc
# B11: NRCoV2-10 VHH-Fc (Fc fusion)
# chain: B2 chain
# notes: bivalent VHH-Fc
# B12: NRCoV2-15 VHH-Fc (Fc fusion)
# chain: B3 chain
# notes: bivalent VHH-Fc
# Biological target: SARS-CoV-2 spike protein S on live virus, Wuhan (strain SARS-CoV-2/Canada/VIDO-01/2020) (SARS-CoV-2 (Wuhan), UniProt P0DTC2 14-1273)
# Assay: cell-based or functional assay
row,Binder,LVNA IC50 [nM]
1,B1,2.82
2,B2,1.28
3,B3,0.73
4,B4,0.17
5,B5,~100

# Biological target: Human SARS-CoV-2_Wuhan S (SmT1) (SARS-CoV-2 (Wuhan), UniProt P0DTC2 14-1208)
# Assay: flow cytometry SVNA, VHH-Fc vs biotin-S binding to Vero E6 ACE2
Binder,IC50 [nM],IC99 [nM],Imax % [%]
B1,8.6,101,88
B2,7.7,77.3,91
B3,8.1,71.5,95
B4,6.1,36.3,95
B5,23.8,1970,82

# Biological target: Human SARS-CoV-2_Wuhan S (SmT1) (SARS-CoV-2 (Wuhan), UniProt P0DTC2 14-1208)
# Assay: flow cytometry SVNA: VHH-Fc inhibits S binding to ACE2 on Vero E6 cells
row,Binder,IC50 [nM]
1,B6,4.7
2,B7,4.7
3,B8,4.9
4,B9,7.5
5,B10,8.6
6,B11,8.8
7,B12,5.8
